One test has as its target T1, EphB4 L95R (Homo sapiens, UniProt P54760, L95R).
T1 construct: GP64 signal peptide (N, cleaved yes); made in house; host or cells: Hi5 insect cells (baculovirus, secreted)
T1 sequence (P54760 17-196 L95R): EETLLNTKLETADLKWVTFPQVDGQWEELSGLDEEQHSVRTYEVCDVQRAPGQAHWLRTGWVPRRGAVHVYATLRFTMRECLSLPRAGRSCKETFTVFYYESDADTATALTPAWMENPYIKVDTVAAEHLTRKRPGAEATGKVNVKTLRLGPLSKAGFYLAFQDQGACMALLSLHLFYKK
The test can be described thus: Fluorescence polarization binding of Alexa-532-TNYL-RAW, EphB4 L95R. As to conditions: EphB4 Leu95Arg mutant. As for the experimental part:
(§1) This Example illustrates fluorescence polarization (FP) assays using a fluorescently-labeled reporter peptide to measure binding of various ligands to the EphB4-LBD.
(§2) All experimental data were analyzed using Prism 4.0 software (GraphPad Software Inc., San Diego, Calif.) and Kd values were generated by fitting the experimental data using a one-site binding hyperbola nonlinear regression model or equation 8.10 (.www.invitrogen.com/downloads/FP8.pdf).
(§3) The construct was sequence verified, and baculovirus was generated with homologous recombination into Sapphire Baculovirus DNA (Orbigen, San Diego, Calif.) following the manufacturer's protocol (10). The wtEphB4 construct was used as a template for generation of site specific mutants.
Background: In fluorescence polarisation assays a small probe gives low polarisation when free and higher when bound to something large.

The next test deals with T2, EphB4 K149Q (Homo sapiens, UniProt P54760, K149Q).
T2 construct: GP64 signal peptide (N, cleaved yes); made in house; host or cells: Hi5 insect cells (baculovirus, secreted)
T2 sequence (P54760 17-196 K149Q): T1 sequence (P54760 17-196 L95R) with R79L, K133Q
The test can be described thus: Fluorescence polarization binding of Alexa-532-TNYL-RAW, EphB4 K149Q. As to conditions: FP; EphB4 mutant Lys149Gln. As for the experimental part:
as §1, §2, §3

Another test has as its target T3, EphB4 T147F (Homo sapiens, UniProt P54760, T147F).
T3 construct: GP64 signal peptide (N, cleaved yes); made in house; host or cells: Hi5 insect cells (baculovirus, secreted)
T3 sequence (P54760 17-196 T147F): T1 sequence (P54760 17-196 L95R) with R79L, T131F
The test can be described thus: Fluorescence polarization binding of Alexa-532-TNYL-RAW, EphB4 T147F. As to conditions: FP; EphB4 mutant Thr147Phe. As for the experimental part: as §1, §2, §3

Another test addresses T4, EphB4 A186S (Homo sapiens, UniProt P54760, A186S).
T4 construct: GP64 signal peptide (N, cleaved yes); made in house; host or cells: Hi5 insect cells (baculovirus, secreted)
T4 sequence (P54760 17-196 A186S): T1 sequence (P54760 17-196 L95R) with R79L, A170S
The test can be described thus: Fluorescence polarization binding of Alexa-532-TNYL-RAW, EphB4 A186S. As to conditions: FP; EphB4 mutant Ala186Ser. As for the experimental part:
as §1, §2, §3

In test [1] the target is T5, human EphB4 ephrin-binding domain, EphB4 (wt), EphB4 (17-196) (Homo sapiens, UniProt P54760).
T5 sequence (P54760 17-196): T1 sequence (P54760 17-196 L95R) with R79L
The test can be described thus: Isothermal titration calorimetry (ITC), wild-type EphB4. As to conditions: Table 5, receptor EphB4 (wt). On the technique in general: ITC needs no label: the signal is the heat of the interaction.
Procedure: All mutants and ligands were dialyzed into buffer containing 50 mM Tris-Cl (pH 7.8), 150 mM NaCl, and 1 mM CaCl2 prior to use in isothermal titration calorimetry (ITC) experiments. All experiments were performed with a Microcal MCS ITC at 25° C. […] Data for these titrations were fit assuming a stoichiometry of 1 and at least 60% saturation at the final peptide concentration as described (19,34).
Peptides were dissolved into the same buffer used for the dialysis of EphB4. […] ITC experiments were performed with a Microcal MCS ITC at 25° C. Following an initial injection of 2 μl, titrations were performed by making 20 13 μl injections of peptide into EphB4 in the sample cell to produce an approximate final 2:1 ratio of injectant to sample in the cell. […] Prior to loading the sample cell, EphB4 was centrifuged at 18,000 g for 5 min at 4° C. to remove aggregates and degassed for 5 minutes at room temperature. […] Dilution data were fit to a line and subtracted from the corresponding titration data.

In test [2] the target is human EphB4 (17-196) ligand binding domain, wild type (human). The test can be described thus: ITC, 25 °C.
In test [3] the target is human EphB4 (17-196) K149Q mutant (human). The test can be described thus: ITC, 25 °C.
The target of test [4] is human EphB4 (17-196) L95R mutant (human). The test can be described thus: ITC.
In test [5] the target is human EphB4 (17-196) K149Q mutant (human). The test can be described thus: ITC.
The target in test [6] is human EphB4 (17-196) ligand binding domain, wild type (human). The test can be described thus: ITC, 25 °C, 50 mM Tris pH 7.8, 150 mM NaCl, 1 mM CaCl2.
The target in test [7] is human EphB4 (17-196) K149Q mutant (human). The test is described as above.
Test [8] has as its target human EphB4 (17-196) ligand binding domain, wild type (human). The test can be described thus: FP competition, unlabeled TNYL-RAW against Alexa-532-TNYL-RAW on wtEphB4 (FIG. 7).
The target in test [9] is human EphB4 (17-196) K149Q mutant (human). The test can be described thus: FP competition, unlabeled TNYL-RAW against Alexa-532-TNYL-RAW on EphB4 K149Q (FIG. 7).
For test [10], the target named is human EphB4 (17-196) L95R mutant (human). The test can be described thus: ITC, 25 °C, 2 mM TNYL-RAW in the syringe, 15 µM EphB4 (L95R) in the cell; fit assuming stoichiometry of 1.
In test [11] the target is Alexa-532-TNYL-RAW peptide. The test can be described thus: fluorescence polarization, EphB4 titrated into 75 nM Alexa-532-TNYL-RAW.
For test [12], the target named is Alexa-532-TNYL-RAW peptide. The test can be described thus: fluorescence polarization.
Test [13] concerns the target human EphB4 (17-196) L95R mutant (human). The test can be described thus: ITC, 25 °C.
The target is the same in test [14]. The test can be described thus: ITC, 25 °C, 50 mM Tris pH 7.8, 150 mM NaCl, 1 mM CaCl2.
The target in test [15] is human EphB4 (17-196) K149Q mutant (human). The test can be described thus: ITC in phosphate buffer.

Positions count from the first letter of the chain named. pKd, pKi: −log10 of the molar value. Where a SMILES comes first, the peptide text is derived from it. Where no end group is shown, it is not given here. The star is where a group is joined. X1 = CC1N=c2c(cc3c(c2S(=O)(=O)O)Oc2c(cc4c(c2S(=O)(=O)O)NC(C)C4(C)C)C=3c2ccc(C(=O)*)cc2)C1(C)C

On to `CC[C@H](C)[C@H](NC(=O)[C@@H]1CCCN1C(=O)CNC(=O)[C@H](CC(N)=O)NC(=O)[C@@H]1CCCN1C(=O)[C@H](CO)NC(=O)[C@H](Cc1ccccc1)NC(=O)[C@H](CC(C)C)NC(=O)[C@H](Cc1ccc(O)cc1)NC(=O)[C@H](CC(N)=O)NC(=O)[C@@H](NC(=O)c1ccc(C2=c3cc4c(c(S(=O)(=O)O)c3Oc3c2cc2c(c3S(=O)(=O)O)NC(C)C2(C)C)=NC(C)C4(C)C)cc1)[C@@H](C)O)C(=O)N[C@@H](C)C(=O)N[C@@H](CCCNC(=N)N)C(=O)N[C@@H](C)C(=O)N[C@@H](Cc1c[nH]c2ccccc12)C(=O)O` (stereo partly shown) [Alexa-532-TNYL-RAW] (X1-TNYLFSPNGPIARAW-OH; N-terminus and C-terminus assumed), for which, at EphB4 L95R, the “binding of the peptide in FP assay” value was “did not exhibit significant binding”. The “reduction in binding affinity versus wild type” value at EphB4 K149Q, at EphB4 T147F and on EphB4 A186S was 4-5 fold each time.

In turn, `CC[C@H](C)[C@H](NC(=O)[C@@H]1CCCN1C(=O)CNC(=O)[C@H](CC(N)=O)NC(=O)[C@@H]1CCCN1C(=O)[C@H](CO)NC(=O)[C@H](Cc1ccccc1)NC(=O)[C@H](CC(C)C)NC(=O)[C@H](Cc1ccc(O)cc1)NC(=O)[C@H](CC(N)=O)NC(=O)[C@@H](N)[C@@H](C)O)C(=O)N[C@@H](C)C(=O)O` [TNYL] registered a ΔH in test [1] of −9.6 ± 0.3 koal mol−1.

LASPNGPIARAW [LFSP-RAW(F to A)] came in with a ΔH in test [1] of −7.9 ± 0.9 koal mol−1.

As a reminder, the pKd is the negative decadic logarithm of the Kd, by convention in mol/L. For orientation: pKi means the negative decadic logarithm of the Ki, by convention in mol/L. For TNYL-RAW peptide, the pKd was 7.15 in [2]; 6.60 in test [3]; 7.15 in [6]; 6.80 in test [7]; 4.44 in test [10]. For the same compound, the TΔS in [2] is -4.9 kcal/mol; in test [3] it was -2.7 kcal/mol; in test [6] it was -4.9 kcal/mol; in test [7] it was -3.2 kcal/mol; in test [10] it was -5.8 kcal/mol. Besides, the ΔG is -9.8 kcal/mol in test [2]; -9 kcal/mol in test [3]; -9.8 kcal/mol in test [6]; -9.4 kcal/mol in [7]; -6.1 kcal/mol in [10]. The ΔH in test [2] is -14.7 kcal/mol; in test [3], -11.7 kcal/mol; in [6], -14.7 kcal/mol; in [7], -12.5 kcal/mol; in test [10], -12 kcal/mol. Besides, the fold reduction of affinity against wild-type EphB4 came to 500 fold in test [4] and 3 fold in [5]. For the same compound, the values for the pKi in [8] and in test [9] were 7.00 and 6.77, respectively.

On to “human EphB4 (17-196) A186S mutant (receptor)”, for which the pKd in [11] is 7.80.

Turning to “human EphB4 (17-196) K149Q mutant (receptor)”, the assay window in test [12] came to 12 fold. In test [11], the pKd is 7.64.

“human EphB4 (17-196) R148S mutant (receptor)” gave a pKd in test [11] of 8.35.

For the compound “human EphB4 (17-196) R150V mutant (receptor)”, in test [11], the pKd is 8.21.

Consider “human EphB4 (17-196) RKR148-150SQV mutant (receptor)”, for which the negative logarithm of the Kd (pKd) in test [11] was 7.68.

In [11], “human EphB4 (17-196) T147F mutant (receptor)” gave a pKd of 7.60.

“human EphB4 (17-196) ligand binding domain, wild type (receptor)” displayed an assay window in [12] of 6 fold. This compound had a pKd in test [11] of 8.30.

Turning to “human ephrinB2 (extracellular domain; residues 25-187) (ligand)”, the pKd in [2] is 7.40; in test [13], 5.72; in [3] it was 7.70; in [6], 7.40; in [14], 5.72; in test [7], 7.70. For the same compound, the TΔS was determined as 13.4 kcal/mol in test [2]; 13 kcal/mol in test [13]; 14.1 kcal/mol in test [3]; 13.4 kcal/mol in [6]; 13 kcal/mol in [14]; 14.4 kcal/mol in test [7]. Besides, the ΔG was -10.2 kcal/mol in [2]; -7.8 kcal/mol in test [13]; -10.5 kcal/mol in [3]; -10.2 kcal/mol in test [6]; -7.8 kcal/mol in test [14]; -10.6 kcal/mol in test [7]. Moreover, the ΔH in [2] stood at 3.3 kcal/mol; in [13], 5.2 kcal/mol; in test [3], 3.6 kcal/mol; in test [6], 3.3 kcal/mol; in [14], 5.2 kcal/mol; in test [7], 3.7 kcal/mol. Also, the ΔHobs in test [15] came to 3.9 kcal/mol.

(Values after patent publication US20080020984A1, “Crystal Structure of a Receptor-Ligand Complex and Methods of Use” (priority 2006, published 2008).)
